This is an account of results in paper PMC11607471, “E3 Ubiquitin Ligase Ring Finger Protein 2 Alleviates Cerebral Ischemia–Reperfusion Injury by Stabilizing Mesencephalic Astrocyte‐Derived Neurotrophic Factor Through Monoubiquitination” (CNS Neuroscience & Therapeutics, 2024).

The test concerns the target T1, GST-RNF2 (human, UniProt Q99496 1-336).
T1 construct: RNF2; also called recombinant GST-tagged human RNF2; source: Escherichia coli BL-21, immobilized on glutathione-Sepharose beads
T1 sequence (looked up): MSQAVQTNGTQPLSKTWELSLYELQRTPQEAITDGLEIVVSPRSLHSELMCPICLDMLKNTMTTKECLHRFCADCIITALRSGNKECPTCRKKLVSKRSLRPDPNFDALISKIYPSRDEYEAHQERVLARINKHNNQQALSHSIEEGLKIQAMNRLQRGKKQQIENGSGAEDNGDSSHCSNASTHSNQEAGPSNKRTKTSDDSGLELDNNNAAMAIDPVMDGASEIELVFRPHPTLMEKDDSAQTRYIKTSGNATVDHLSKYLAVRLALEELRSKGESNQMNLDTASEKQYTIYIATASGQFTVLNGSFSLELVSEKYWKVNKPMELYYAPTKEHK
The experiment in a line: pull-down; GST-RNF2 immobilized on glutathione-Sepharose beads incubated with recombinant His-MANF; blot with anti-MANF. As to conditions: both partners purified.

B1: His-tagged human MANF (natural protein, UniProt P55145 25-182, looked up)
chain: LRPGDCEVCISYLGRFYQDLKDRDVTFSPATIENELIKFCREARGKENRLCYYIGATDDAATKIINEVSKPLAHHIPVEKICEKLKKKDSQICELKYDKQIDLSTVDLKKLRVKELKKILDDWGETCKGCAEKSDYIRKINELMPKYAPKAASARTDL
notes: human MANF; also called His-MANF; recombinant His-MANF; source: Escherichia coli BL-21, purified (Ni-NTA agarose)
For B1, the binding result is recorded as “binds”.
